Results on six molecules are retold here after patent US20180258181A1.

For orientation: EC50 means the concentration needed to bring the measured effect to its halfway point.

B1: MOR06631 IgG (antibody, V domains shown)
VH: QVQLVQSGAEVKKPGESLKISCKGSGYSFTNYWIGWVRQMPGKGLEWMGFIWPVDSWTQYSPSFQGQVTISADKSISTAYLQWSSLKASDTAMYYCARYGHGMYGGALDVWGQGTLVTVSS
VL: DIVLTQSPATLSLSPGERATLSCRASQSVRSSRLAWYQQKPGQAPRLLIYGASKRATGVPARFSGSGSGTDFTLTISSLEPEDFATYYCQQYYDFPPTFGQGTKVEIKR
B2: MOR06669 IgG (antibody, V domains shown)
VH: B1 VH with F50I, V54I, W57F
VL: B1 VL
B3: MOR07111 IgG (antibody, V domains shown)
VH: B1 VH with F50V, W52M, V54S, W57Y, Q59R
VL: B1 VL with T86V, Y92F, D94S, F95K, P97I
B4: MOR06626 IgG (antibody, V domains shown)
VH: QVQLVQSGAEVKKPGASVKVSCKASGYTFTGNYINWVRQAPGQGLEWMGIINPTKGWTLYAQKFQGRVTMTRDTSISTAYMELSSLRSEDTAVYYCARWHHGTWIFDYWGQGTLVTVSS
VL: DIVLTQPPSVSGAPGQRVTISCSGSSSNIGSNYVSWYQQLPGTAPKLLIYNDNQRPSGVPDRFSGSKSGTSASLAITGLQSEDEADYYCSTYDRRTFSVFGGGTKLTVLG
B5: MOR06638 IgG (antibody, V domains shown)
VH: B4 VH with T54H, K55G, W57D, L59K
VL: DIVLTQPPSVSGAPGQRVTISCSGSSSNIGSNYVSWYQQLPGTAPKLLIYNDNQRPSGVPDRFSGSKSGTSASLAITGLQSEDEADYYCSSWDRADGSYVFGGGTKLTVLG
B6: MOR06657 IgG (antibody, V domains shown)
VH: QVQLVQSGAEVKKPGSSVKVSCKASGGTFSSYYFSWVRQAPGQGLEWMGGIIPKFGSANYAQKFQGRVTITADESTSTAYMELSSLRSEDTAVYYCARRTSMDYWGQGTLVTVSS
VL: DIALTQPASVSGSPGQSITISCTGTSSDVGGYNYVSWYQQHPGKAPKLMIYSVSKRPSGVSNRFSGSKSGNTASLTISGLQAEDEADYYCATWDHSQMGKVFGGGTKLTVLG

Numbering of substitutions follows the chain as printed.

One assay concerns the target mesothelin on OVCAR-3 cells (UniProt Q13421). Briefly: FACS titration, EC50 on OVCAR-3 against EC50 on NCI-H226.
As to B1, the x-fold different EC50 on OVCAR-3 vs. NCI-H226 came out at 0.5 fold.
Take B2: the x-fold different EC50 on OVCAR-3 vs. NCI-H226 came out at 3.4 fold.
Same read-out and setting: the figure for B3 is 1.7 fold.
Same read-out and setting: the value for B4 was 22 fold; that for B5 was 22.1 fold.
Consider B6, for which the x-fold different EC50 on OVCAR-3 vs. NCI-H226 was 14 fold.

A further assay shares this target. Briefly: FACS titration, IgG on OVCAR-3 cells.
B4 gave an EC50 of 9.68 nM.
Still for that read-out and setting: the figure for B6 is 0.53 nM.
